The target of this assay is alcohol dehydrogenase (ADH). The assay is described as follows: cell-based or functional assay.

“CryS96 (αB-crystallin peptide fused with ELP S96)” showed a decrease in ADH aggregation (optical density at 360 nm, 48° C., 2 h) of 61%.

Values taken from patent publication US20210054048A1.
